Test results from publication PMC12242641 (ACS Omega, 2025).

Target: the molecule itself
Experiment: […]; 20 mM sodium phosphate pH 7, 100 mM NaCl, 2 mM TCEP

B1: human tripartite motif-containing protein 25 (TRIM25), residues 183-380 (domain or fragment, UniProt Q14258 183-380, looked up)
chain: HKTCSPASLSQASADLEATLRHKLTVMYSQINGASRALDDVRNRQQDVRMTANRKVEQLQQEYTEMKALLDASETTSTRKIKEEEKRVNSKFDTIYQILLKKKSEIQTLKEEIEQSLTKRDEFEFLEKASKLRGISTKPVYIPEVELNHKLIKGIHQSTIDLKNELKQCIGRLQEPTPSSGDPGEHDPASTHKSTRPV
notes: not shown: His6, N-terminal, cleaved; SUMO, N-terminal, cleaved
- stoichiometry N: 2
